Data published in publication PMC7247818 (2020).
Where no end group is shown, it is not given here. [ ]: non-standard residue; d: D form. The star is where a group is joined. pY = N[C@@H](Cc1ccc(OP(=O)(O)O)cc1)C(=O)O; Dansyl = CN(C)c1cccc2c(S(=O)(=O)*)cccc12

Target: T1, Gab2 448-460 (Homo sapiens)
T1 chain: Dansyl-TNSEDN[pY]VPMNPG
Assay: stopped-flow FRET

Kd: 200 nM
B1: PI3K p85alpha N-SH2 N-SH2 (protein)
chain: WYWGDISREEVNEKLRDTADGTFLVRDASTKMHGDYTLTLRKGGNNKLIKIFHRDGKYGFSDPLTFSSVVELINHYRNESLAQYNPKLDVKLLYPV
